This is an account of results in patent publication US20020062009A1 (GlaxoSmithKline, published 2002).

Experiment [1] concerns the target T1, purified human alpha v beta 3 integrin (biotinylated) (human, UniProt P06756 31-1048; P05106 27-788, limits assumed).
T1 construct: also called αvβ3; human integrin αvβ3
Put plainly: ORIGEN electrochemiluminescence; antibody dilutions with biotinylated purified integrin, captured on streptavidin beads. As for the experimental part:
The relative binding avidity of CPB9 was compared to that of the original murine B9 antibody as follows. CPB9 antibodies present in culture supernatants from cells maintained in culture for 5 days after transfection with the expression constructs were compared to the parental murine B9 antibody using the ORIGEN technology (IGEN Inc, Gaithersburg, Md.). Briefly, different dilutions of the B9 variants were incubated with purified human αvβ3 integrin which had previously been biotinylated, and an electrochemiluminescent TAG moiety specific for the antibody C regions. B9 variant antibody bound to the integrin was measured by capturing the immune complexes onto streptavidin beads followed by analysis on the ORIGEN instrument.

Experiment [2] deals with T2, human erythropoietin receptor (EPOr), recombinant entire extracellular domain (human, UniProt P19235 25-250).
T2 construct: extracellular domain; also called human EPOr; monomeric EPOr
T2 sequence (looked up): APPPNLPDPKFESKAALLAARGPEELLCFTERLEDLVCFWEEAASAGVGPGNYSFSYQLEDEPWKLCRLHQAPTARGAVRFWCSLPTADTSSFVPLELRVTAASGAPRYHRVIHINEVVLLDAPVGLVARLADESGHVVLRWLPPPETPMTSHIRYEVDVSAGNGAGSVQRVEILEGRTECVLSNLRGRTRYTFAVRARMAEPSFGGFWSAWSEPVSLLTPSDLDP
The experiment is described as follows: BIAcore 1000 SPR; antibody captured by protein A-bound rabbit anti-mouse Fc, monomeric EPOr in solution, 20 C. As for the experimental part: (§1) A BIAcore analysis (Pharmacia) was performed to determine the binding affinity for human EPOr of murine 3G9 and CP3G9. The interaction of CP3G9 as well as murine 3G9 with EPOr was characterized using a BIAcore 1000 biosensor. Descriptions of the instrumentation and the sensor surfaces are described in Brigham-Burke et al., Anal. Biochem., 205:125-131 (1992).
(§2) CP3G9 was captured onto a sensor surface of immobilized protein A. The kinetic binding constants were determined by passing solutions of monomeric EPOr over the surface and monitoring binding versus time. The equilibrium dissociation constant for the interaction was then derived from the ratio of the kinetic constants. The parent murine 3G9 was captured onto a surface of protein A captured rabbit anti-mouse Fc specific polyclonal antibody. The kinetics and dissociation constant for the interaction with EPOr was determined as described above. All measurements were made in 10 mM sodium phosphate, 150 mM NaCl pH 7.23 mM EDTA and 0.005% Tween 20. The flow rate was 60 uL/min. The temperature was 20° C.
A general note: In SPR one partner is held on a chip, and binding of the other changes the refractive index at the surface.

Experiment [3] addresses T2, human erythropoietin receptor (EPOr), …. The experiment is described as follows: BIAcore 1000 SPR; antibody captured by protein A-bound rabbit anti-mouse Fc, monomeric EPOr in solution, 20 C; KD from ratio of kinetic constants. The protocol: as §1, §2
For experiment [4] the target is unchanged. The experiment is described as follows: BIAcore 1000 SPR; antibody captured by protein A-bound rabbit anti-mouse Fc, monomeric EPOr in solution, 20 C (exponent as printed; kon and KD imply 10^-3). As for the experimental part:
as §1, §2

For experiment [5] the target is unchanged. The experiment is described as follows: BIAcore 1000 SPR. As for the experimental part: as §1, §2
For experiment [6] the target is unchanged. The experiment is described as follows: BIAcore 1000 SPR; antibody captured on immobilized protein A, monomeric EPOr in solution, 20 C. The protocol:
as §1, §2

Experiment [7] shares this target. The experiment is described as follows: BIAcore 1000 SPR; antibody captured on immobilized protein A, monomeric EPOr in solution, 20 C; KD from ratio of kinetic constants. As for the experimental part: as §1, §2
Experiment [8] has the same target. Put plainly: BIAcore 1000 SPR; antibody captured on immobilized protein A, monomeric EPOr in solution, 20 C (exponent as printed; kon and KD imply 10^-3). The protocol: as §1, §2

T1 sequence (P06756 31-1048 limits assumed, form in doubt, chain 1 of 2): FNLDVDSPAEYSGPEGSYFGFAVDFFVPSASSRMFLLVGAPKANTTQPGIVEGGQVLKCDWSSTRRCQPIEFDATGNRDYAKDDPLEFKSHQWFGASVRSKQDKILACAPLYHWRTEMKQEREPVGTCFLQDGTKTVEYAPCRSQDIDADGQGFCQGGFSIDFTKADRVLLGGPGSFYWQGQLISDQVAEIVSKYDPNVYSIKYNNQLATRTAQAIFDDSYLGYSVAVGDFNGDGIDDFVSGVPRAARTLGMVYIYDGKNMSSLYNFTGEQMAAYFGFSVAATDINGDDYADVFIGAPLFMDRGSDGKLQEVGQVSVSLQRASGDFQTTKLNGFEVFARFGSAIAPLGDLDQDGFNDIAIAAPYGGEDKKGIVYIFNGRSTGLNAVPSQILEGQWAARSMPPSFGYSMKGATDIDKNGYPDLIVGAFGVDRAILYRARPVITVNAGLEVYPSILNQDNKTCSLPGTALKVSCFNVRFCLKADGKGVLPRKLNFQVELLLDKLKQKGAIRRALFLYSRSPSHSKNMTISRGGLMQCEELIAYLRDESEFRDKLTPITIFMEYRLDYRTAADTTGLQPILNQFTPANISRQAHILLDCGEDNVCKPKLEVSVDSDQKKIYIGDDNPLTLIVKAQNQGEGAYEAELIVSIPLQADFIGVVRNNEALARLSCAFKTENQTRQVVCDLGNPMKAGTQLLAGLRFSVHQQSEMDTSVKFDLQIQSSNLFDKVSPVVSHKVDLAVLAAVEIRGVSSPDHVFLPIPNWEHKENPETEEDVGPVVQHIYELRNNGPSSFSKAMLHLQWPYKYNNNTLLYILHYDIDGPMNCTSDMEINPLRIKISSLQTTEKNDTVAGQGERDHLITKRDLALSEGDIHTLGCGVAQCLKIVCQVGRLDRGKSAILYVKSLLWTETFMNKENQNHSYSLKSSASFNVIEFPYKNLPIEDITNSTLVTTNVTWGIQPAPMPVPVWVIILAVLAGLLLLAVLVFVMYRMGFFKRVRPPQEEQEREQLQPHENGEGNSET
T1 sequence (P05106 27-788 limits assumed, form in doubt, chain 2 of 2): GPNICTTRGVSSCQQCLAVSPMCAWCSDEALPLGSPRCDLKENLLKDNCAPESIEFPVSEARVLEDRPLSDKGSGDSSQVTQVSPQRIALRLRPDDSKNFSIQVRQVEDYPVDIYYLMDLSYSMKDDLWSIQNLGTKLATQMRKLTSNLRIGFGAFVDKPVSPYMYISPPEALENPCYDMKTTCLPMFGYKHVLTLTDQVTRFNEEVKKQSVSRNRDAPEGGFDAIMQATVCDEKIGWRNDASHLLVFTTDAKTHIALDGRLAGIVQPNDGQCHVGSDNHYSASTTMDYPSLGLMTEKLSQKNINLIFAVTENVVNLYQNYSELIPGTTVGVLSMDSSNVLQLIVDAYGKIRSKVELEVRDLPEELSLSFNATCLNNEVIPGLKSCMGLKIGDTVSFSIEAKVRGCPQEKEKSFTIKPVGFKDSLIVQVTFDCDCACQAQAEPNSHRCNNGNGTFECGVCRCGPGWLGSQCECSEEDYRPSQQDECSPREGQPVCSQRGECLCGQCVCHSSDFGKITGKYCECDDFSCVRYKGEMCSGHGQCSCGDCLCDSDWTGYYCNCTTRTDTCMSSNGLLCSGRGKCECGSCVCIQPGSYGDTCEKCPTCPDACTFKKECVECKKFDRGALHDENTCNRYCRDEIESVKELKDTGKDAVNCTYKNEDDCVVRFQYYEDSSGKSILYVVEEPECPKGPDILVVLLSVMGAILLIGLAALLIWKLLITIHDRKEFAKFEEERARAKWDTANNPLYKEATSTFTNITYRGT

B1: engineered B9 (CPB9), chimpanzee framework engineered anti-integrin antibody (antibody, IgG1, V domains shown)
VH: QVQLVQSGAEVKKPGSSVKVSCKASGYTFSSYWIEWVKQAPGQGLEWIGEILPRSGNTNYNEKFKGKASFNADTSTNIAYMELTSLRSEDTAVYYCSSRGVRGSMDYWGQGTLVTVSS
VL: DIQMTQSPSSLSASVGDRVTITCRSSQDISNFLNWYQQKPGKAPKLLIYYTSTLHSGVPSRFSGSGSGTDYTLTISSLQPEDFATYYCQQGNTLPWTFGGGTKVEIKR
notes: They were ligated into vectors with IgG1,kappa antibody constant regions and expressed in COS cells; Tested as culture supernatant
With B1, the “fold displacement of binding curve against murine B9” value in experiment [1] is about 3 fold.

B2: murine anti-erythropoietin receptor antibody 3G9 (antibody, V domains shown)
VH: QVQLQQPGAELVKSGASVKLSCKASGSTFTSYWMHWVKQRPGRGLEWIGRIDPNSGGTKDNEKFKSKATLTVDKPSSTAYMQLSSLTSEDSAVYYCARETYYDSSFAYWGQGTLVTVSA
VL: DIVMTQSQKFMSTSVGDRVSVTCKASQNVGTNVAWYQQKPGQSPKALIYSASYRYSGVPDRFTGSGSGTDFTLTISNVQSEDLAEYFCQQYNSYPLTFGAGTKLELKR
notes: Murine monoclonal antibody; also called murine 3G9; parent murine 3G9
With B2, in experiment [2], the kon worked out at 1.2e+06 M⁻¹ s⁻¹. The Kd in experiment [3] amounted to 3.3 nM. In experiment [4], the koff came out at 0.004 s⁻¹.

B3: engineered 3G9 (CP3G9), chimpanzee framework engineered anti-erythropoietin receptor antibody (antibody, IgG1, V domains shown)
VH: QVQLVQSGAEVKKPGSSVKVSCKASGSTFTSYWMHWVKQAPGQGLEWIGRIDPNSGGTKDNEKFKSKATLNVDKSTNIAYMELTSLRSEDTAVYYCARETYYDSSFAYWGQGTMVTVS
VL: DIVMTQSPSSLSASVGDRVTITCKASQNVGTNVAWYQQKPGKAPKALIYSASYRYSGVPDRFSGSGSGTDFTLTISSLQPEDFATYYCQQYNSYPLTFGGGTKVEIK
notes: They were ligated into vectors with IgG1,kappa antibody constant regions and expressed in COS cells; also called chimpanzee version of 3G9
For the molecule B3, the “fold difference of KD against murine 3G9” value in experiment [5] is at most 3 fold. The kon in experiment [6] is 1e+06 M⁻¹ s⁻¹. In addition, in experiment [7], the Kd is 9.1 nM. Besides, the koff in experiment [8] worked out at 0.0091 s⁻¹.

What is called kon is the second-order rate constant of association. As usually defined, the Kd is the constant that tells how readily two partners part at equilibrium. As a reminder, the koff is the first-order rate constant of dissociation.
